From the supplement of paper PMC10065799, “High-throughput profiling of sequence recognition by tyrosine kinases and SH2 domains using bacterial peptide display” (eLife, 2023)

Columns and labels:
MERTK = MERTK (UniProt Q12866); test: phosphorylation enrichment, bacterial display (enrichment ratio); higher = better substrate or ligand; peptides without Tyr show the background
Jak2 = Jak2 (UniProt O60674); test: as above
AncSZ = test: as above
Fer (mouse) = test: as above
EPHB1 = EPHB1 (UniProt P54762); test: as above
EPHB2 = EPHB2 (UniProt P29323); test: as above
FGFR3 = FGFR3 (UniProt P22607); test: as above
Hck = Hck (UniProt P08631); test: as above
FGFR1 = FGFR1 (UniProt P11362); test: as above
Fes = Fes (UniProt P07332); test: as above
Fyn = Fyn (UniProt P06241); test: as above
c-Abl (mouse) = test: as above
c-Src = test: as above
c-Src SH2 = test: SH2 binding enrichment of the phosphorylated peptide, bacterial display (enrichment ratio); higher = better substrate or ligand; peptides without Tyr show the background
SHP2-C SH2 = test: as above
Grb2 SH2 = Grb2 SH2 (UniProt P62993); test: as above
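Wherever SH2 binding enrichment of the phosphorylated peptide, bacterial display is given: peptide library displayed on the E. coli surface as eCPX fusions, selected cells deep-sequenced, score is each peptide's frequency after selection divided by its frequency in the input.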
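Wherever phosphorylation enrichment, bacterial display is given: 11-residue human phosphosite peptides and single-mutation variants displayed on the E. coli surface, counted by deep sequencing, each peptide's frequency after selection divided by its frequency in the unselected input library; frequency after pTyr selection over input frequency; kinase dosed for 20-30% of maximal phosphorylation in three min.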

Sequence of EPHB2 (P29323 whole entry, looked up): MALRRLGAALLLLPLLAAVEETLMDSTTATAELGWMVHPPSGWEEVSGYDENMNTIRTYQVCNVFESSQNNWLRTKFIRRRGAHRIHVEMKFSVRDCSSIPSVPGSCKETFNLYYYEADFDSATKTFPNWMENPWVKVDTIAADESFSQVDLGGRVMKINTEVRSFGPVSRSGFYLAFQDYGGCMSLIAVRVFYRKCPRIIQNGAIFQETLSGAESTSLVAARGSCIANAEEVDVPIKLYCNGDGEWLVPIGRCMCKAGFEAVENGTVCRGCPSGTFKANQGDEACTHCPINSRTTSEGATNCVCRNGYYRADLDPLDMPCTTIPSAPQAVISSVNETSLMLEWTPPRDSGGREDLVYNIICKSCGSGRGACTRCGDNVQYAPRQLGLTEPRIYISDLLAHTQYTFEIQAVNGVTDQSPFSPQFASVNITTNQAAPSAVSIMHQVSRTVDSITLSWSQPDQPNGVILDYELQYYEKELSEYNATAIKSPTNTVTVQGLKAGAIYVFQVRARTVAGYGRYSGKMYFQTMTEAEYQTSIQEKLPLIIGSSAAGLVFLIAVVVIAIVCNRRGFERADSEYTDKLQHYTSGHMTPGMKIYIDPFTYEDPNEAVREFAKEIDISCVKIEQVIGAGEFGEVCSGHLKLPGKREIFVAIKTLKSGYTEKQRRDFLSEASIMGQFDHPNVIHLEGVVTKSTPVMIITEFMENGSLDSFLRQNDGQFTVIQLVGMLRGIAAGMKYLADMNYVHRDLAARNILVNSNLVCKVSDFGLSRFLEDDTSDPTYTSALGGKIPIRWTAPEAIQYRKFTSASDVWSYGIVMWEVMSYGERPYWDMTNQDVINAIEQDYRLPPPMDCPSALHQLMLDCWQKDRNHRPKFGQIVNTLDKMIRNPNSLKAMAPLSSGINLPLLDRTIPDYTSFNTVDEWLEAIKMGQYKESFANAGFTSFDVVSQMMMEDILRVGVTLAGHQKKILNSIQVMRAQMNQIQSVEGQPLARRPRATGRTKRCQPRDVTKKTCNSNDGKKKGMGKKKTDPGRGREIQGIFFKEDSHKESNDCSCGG
Sequence of MERTK (Q12866 whole entry, looked up): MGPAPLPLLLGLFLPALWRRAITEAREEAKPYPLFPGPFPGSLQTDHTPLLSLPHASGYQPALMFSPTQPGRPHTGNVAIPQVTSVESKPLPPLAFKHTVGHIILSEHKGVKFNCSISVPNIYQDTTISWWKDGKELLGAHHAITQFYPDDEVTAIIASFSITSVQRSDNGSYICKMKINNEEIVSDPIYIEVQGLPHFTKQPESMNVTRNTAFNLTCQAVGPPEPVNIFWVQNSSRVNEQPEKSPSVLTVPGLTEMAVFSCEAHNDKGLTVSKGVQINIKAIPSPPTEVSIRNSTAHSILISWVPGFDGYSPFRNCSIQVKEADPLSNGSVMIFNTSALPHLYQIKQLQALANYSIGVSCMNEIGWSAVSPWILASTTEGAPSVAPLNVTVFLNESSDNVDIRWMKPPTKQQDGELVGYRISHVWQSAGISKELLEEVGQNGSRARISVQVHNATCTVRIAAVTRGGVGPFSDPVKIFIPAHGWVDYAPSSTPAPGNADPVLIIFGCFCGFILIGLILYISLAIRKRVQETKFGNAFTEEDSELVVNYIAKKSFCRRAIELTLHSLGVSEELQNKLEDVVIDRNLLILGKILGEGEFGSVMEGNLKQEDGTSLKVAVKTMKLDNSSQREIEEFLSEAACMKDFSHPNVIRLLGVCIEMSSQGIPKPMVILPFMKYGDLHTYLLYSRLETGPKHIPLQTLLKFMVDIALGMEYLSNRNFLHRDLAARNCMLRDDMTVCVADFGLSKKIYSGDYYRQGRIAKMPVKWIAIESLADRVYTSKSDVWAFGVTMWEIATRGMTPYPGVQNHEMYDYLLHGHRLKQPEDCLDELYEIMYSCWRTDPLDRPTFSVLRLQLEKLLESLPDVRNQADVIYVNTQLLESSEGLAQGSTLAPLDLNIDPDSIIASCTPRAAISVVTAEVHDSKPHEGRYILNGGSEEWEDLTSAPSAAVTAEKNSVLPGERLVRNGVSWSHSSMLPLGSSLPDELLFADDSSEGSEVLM
Sequence of Jak2 (O60674 whole entry, looked up): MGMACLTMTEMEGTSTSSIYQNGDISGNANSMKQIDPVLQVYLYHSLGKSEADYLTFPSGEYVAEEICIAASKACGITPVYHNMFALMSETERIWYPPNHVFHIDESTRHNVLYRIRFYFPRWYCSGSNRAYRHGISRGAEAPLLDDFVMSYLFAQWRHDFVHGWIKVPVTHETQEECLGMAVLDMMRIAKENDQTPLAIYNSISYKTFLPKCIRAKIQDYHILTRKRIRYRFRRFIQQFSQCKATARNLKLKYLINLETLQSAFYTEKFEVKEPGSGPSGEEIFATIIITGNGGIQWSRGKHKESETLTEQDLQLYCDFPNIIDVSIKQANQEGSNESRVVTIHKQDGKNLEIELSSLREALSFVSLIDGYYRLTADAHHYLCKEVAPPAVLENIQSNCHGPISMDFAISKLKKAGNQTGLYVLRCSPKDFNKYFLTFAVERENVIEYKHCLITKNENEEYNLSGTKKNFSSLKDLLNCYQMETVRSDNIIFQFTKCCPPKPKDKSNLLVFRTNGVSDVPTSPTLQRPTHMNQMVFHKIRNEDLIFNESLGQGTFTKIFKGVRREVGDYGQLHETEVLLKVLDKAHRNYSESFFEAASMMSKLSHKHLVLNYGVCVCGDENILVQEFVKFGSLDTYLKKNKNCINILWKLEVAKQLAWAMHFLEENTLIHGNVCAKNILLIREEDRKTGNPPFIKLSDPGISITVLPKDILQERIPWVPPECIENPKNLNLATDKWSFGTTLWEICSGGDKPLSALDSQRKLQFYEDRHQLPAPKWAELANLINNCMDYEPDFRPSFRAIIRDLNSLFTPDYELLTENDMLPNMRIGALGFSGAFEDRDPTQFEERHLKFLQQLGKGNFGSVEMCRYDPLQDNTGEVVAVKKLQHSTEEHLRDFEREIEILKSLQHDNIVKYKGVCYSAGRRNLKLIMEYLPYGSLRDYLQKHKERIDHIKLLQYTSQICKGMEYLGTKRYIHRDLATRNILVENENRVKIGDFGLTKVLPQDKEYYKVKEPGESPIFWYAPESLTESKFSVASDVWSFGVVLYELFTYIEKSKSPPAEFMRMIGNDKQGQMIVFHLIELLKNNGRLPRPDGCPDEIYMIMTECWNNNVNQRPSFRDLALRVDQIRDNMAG
Sequence of EPHB1 (P54762 whole entry, looked up): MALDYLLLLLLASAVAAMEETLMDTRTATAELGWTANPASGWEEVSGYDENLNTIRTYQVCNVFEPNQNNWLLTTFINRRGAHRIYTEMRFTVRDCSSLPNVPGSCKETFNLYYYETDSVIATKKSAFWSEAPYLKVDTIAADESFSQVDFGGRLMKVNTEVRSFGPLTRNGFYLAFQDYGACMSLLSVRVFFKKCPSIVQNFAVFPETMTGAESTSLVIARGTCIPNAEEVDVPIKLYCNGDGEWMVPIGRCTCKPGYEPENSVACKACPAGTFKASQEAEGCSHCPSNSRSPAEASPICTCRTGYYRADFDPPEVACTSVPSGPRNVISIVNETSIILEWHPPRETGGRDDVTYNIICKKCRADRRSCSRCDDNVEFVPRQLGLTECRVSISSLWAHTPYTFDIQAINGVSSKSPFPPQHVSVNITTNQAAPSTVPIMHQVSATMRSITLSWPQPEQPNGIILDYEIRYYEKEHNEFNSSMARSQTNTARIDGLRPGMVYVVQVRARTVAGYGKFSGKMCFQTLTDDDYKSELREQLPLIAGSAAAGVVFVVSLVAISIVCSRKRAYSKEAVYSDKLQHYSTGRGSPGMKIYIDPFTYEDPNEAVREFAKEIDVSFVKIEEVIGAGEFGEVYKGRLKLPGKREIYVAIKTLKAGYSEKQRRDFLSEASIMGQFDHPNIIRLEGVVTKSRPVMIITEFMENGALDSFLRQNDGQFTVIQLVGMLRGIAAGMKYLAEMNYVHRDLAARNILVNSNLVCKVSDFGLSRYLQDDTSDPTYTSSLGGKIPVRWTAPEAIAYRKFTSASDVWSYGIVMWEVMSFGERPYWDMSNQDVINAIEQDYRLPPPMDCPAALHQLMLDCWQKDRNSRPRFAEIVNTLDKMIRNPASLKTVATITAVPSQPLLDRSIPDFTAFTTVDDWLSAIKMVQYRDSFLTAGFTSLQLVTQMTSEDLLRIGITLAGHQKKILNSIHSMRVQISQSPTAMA
Sequence of FGFR1 (P11362 whole entry, looked up): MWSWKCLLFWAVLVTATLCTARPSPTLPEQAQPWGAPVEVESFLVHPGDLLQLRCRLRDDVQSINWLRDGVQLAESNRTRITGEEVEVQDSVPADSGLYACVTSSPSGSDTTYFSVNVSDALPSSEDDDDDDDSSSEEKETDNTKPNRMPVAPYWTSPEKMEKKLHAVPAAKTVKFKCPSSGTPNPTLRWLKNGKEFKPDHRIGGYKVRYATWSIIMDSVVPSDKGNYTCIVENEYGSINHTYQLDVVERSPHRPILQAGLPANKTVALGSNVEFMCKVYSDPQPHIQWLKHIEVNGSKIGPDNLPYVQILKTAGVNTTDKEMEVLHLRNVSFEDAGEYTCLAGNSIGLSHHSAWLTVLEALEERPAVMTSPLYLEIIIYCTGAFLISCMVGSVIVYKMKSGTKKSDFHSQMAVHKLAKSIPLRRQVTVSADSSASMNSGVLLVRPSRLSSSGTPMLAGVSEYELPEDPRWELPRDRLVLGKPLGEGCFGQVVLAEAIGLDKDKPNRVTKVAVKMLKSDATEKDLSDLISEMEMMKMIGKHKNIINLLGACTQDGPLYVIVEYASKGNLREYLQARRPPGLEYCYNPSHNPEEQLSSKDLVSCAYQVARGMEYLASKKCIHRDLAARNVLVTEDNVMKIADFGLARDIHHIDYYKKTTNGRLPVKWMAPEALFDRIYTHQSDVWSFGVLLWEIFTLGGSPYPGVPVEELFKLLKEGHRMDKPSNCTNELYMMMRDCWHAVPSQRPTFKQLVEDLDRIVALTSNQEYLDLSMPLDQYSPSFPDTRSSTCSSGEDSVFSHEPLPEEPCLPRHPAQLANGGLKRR

Row | SH2 binding enrichment (c-Src SH2) | SH2 binding enrichment (SHP2-C SH2) | SH2 binding enrichment (Grb2 SH2) | Sequence | phosphorylation enrichment (MERTK) | phosphorylation enrichment (Jak2) | phosphorylation enrichment (AncSZ) | phosphorylation enrichment (Fer (mouse)) | phosphorylation enrichment (EPHB1) | phosphorylation enrichment (EPHB2) | phosphorylation enrichment (FGFR3) | phosphorylation enrichment (Hck) | phosphorylation enrichment (FGFR1) | phosphorylation enrichment (Fes) | phosphorylation enrichment (Fyn) | phosphorylation enrichment (c-Abl (mouse)) | phosphorylation enrichment (c-Src)
1 | 0.621 | 0.572 | 0.707 | RNYDTYTAGLS [RHBDD1_Y264] | 0.841 | 0.677 | 0.955 | 0.707 | 7.39 | 14.6 | 0.438 | 5.02 | 0.602 | 0.901 | 1.49 | 0.729 | 1.39
2 | 0.581 | 0.377 | 0.847 | RPFFLYVAFHD [SGSH_Y174] | 0.442 | 1.54 | 1.28 | 0.47 | 0.731 | 0.579 | 0.941 | 0.58 | 0.503 | 1.58 | 0.381 | 1.24 | 0.43
3 | 4.1 | 1.1 | 0.758 | RPSELYYSKIG [SMG1_Y2253] | 20.1 | 1.06 | 1.08 | 1.59 | 1.79 | 0.88 | 1.84 | 11.3 | 3.1 | 1.23 | 1.69 | 1.01 | 5.63
4 | 0.464 | 0.514 | 0.541 | RPSGRYPVARR [SHANK3_Y1569] | 0.664 | 0.619 | 0.782 | 0.695 | 0.734 | 0.567 | 1.05 | 0.767 | 0.669 | 0.611 | 0.985 | 0.677 | 0.782
